This experiment addresses T1, KRAS Q61H peptide on HLA-A*01:01 (human).
T1 peptide: ILDTAGHEEY
The experiment can be described thus: cytokine release.

Numbering of substitutions follows the chain as printed.

B1: TCR-1 (TCR, V domains shown)
Valpha: KVTQAQTEISVVEKEDVTLDCVYETRDTTYYLFWYKQPPSGELVFLIRRNSFDEQNEISGRYSWNFQKSTSSFNFTITASQVVDSAVYFCALSEANQAGTALIFGKGTTLSVSS
Vbeta: EAQVTQNPRYLITVTGKKLTVTCSQNMNHEYMSWYRQDPGLGLRQIYYSMNVEVTDKGDVPEGYKVSRKEKRNFPLILESPSPNQTSLYFCASSRKVPPVYGYTFGSGTRLTVV
As for B1, the binding result was “recognises”.

B2: TCR-2 (TCR, V domains shown)
Valpha: B1 Valpha
Vbeta: B1 Vbeta with K96R, V97W, V100T, Y101D, G102T, Y103Q, T104Y, S107P, V114L
For the molecule B2, the binding result is recorded as “recognises”.

B3: TCR-3 (TCR, V domains shown)
Valpha: AQKVTQAQTEISVVEKEDVTLDCVYETRDTTYYLFWYKQPPSGELVFLIRRNSFDEQNEISGRYSWNFQKSTSSFNFTITASQVVDSAVYFCALSEAKAAGNKLTFGGGTRVLVKP
Vbeta: B1 Vbeta with V97L, V100T
As for B3, the binding result is “recognises”.

The record behind these values is patent publication EP4649952A1 (dated 2025).
